Assay results taken from paper doi:10.1101/2023.12.08.570772.
pKd: −log10 of the molar value.

Assays:
[1] = biological target: RAD18/RAD6 complex (full-length, purified) (human) (UniProt Q9NS91); assay: mass photometry
[2] = biological target: His-tagged full length (FL) wildtype (WT) RAD18 (human) (UniProt Q9NS91); assay: AUC
[3] = biological target: His-tagged full length (FL) wildtype (WT) RAD18 (human) (UniProt Q9NS91); assay: mass photometry
[4] = biological target: RAD6 WT (N-terminal histidine tag, purified alone) (human) (UniProt P63146); assay: ITC
Chain of RAD6 WT (N-terminal histidine tag, purified alone) (human) (P63146 whole entry): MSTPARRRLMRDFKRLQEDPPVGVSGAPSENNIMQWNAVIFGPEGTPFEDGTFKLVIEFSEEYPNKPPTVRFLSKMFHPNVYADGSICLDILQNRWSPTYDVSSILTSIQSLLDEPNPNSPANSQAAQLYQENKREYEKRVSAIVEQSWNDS

Chain of His-tagged full length (FL) wildtype (WT) RAD18 (human) (Q9NS91 whole entry): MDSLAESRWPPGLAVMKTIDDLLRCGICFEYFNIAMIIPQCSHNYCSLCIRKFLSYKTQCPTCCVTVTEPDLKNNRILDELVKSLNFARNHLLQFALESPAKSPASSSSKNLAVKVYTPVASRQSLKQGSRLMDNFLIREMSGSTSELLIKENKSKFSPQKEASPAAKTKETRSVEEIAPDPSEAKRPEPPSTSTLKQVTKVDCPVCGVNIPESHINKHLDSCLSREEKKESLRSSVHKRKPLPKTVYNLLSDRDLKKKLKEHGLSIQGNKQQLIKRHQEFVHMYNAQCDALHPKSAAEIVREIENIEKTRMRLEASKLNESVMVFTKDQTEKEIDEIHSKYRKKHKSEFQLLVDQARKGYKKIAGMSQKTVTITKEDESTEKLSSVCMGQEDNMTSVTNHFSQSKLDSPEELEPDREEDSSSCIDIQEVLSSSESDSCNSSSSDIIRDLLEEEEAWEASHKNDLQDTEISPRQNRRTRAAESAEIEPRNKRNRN
Chain of His-tagged full length (FL) wildtype (WT) RAD18 (Q9NS91 whole entry): as above
Chain of RAD6 of the purified RAD18/RAD6 complex (P63146 whole entry, one chain of several): as the sequence (P63146 whole entry) above
Chain of RAD18/RAD6 complex (full-length, purified) (human) (Q9NS91 whole entry, chain 1 of 2): as the sequence (Q9NS91 whole entry) above
Chain of RAD18/RAD6 complex (full-length, purified) (human) (P63146 whole entry, chain 2 of 2, further chain): as the sequence (P63146 whole entry) above
Chain of Full length MAGEA4 WT (N-terminal histidine tag) (P43358 whole entry): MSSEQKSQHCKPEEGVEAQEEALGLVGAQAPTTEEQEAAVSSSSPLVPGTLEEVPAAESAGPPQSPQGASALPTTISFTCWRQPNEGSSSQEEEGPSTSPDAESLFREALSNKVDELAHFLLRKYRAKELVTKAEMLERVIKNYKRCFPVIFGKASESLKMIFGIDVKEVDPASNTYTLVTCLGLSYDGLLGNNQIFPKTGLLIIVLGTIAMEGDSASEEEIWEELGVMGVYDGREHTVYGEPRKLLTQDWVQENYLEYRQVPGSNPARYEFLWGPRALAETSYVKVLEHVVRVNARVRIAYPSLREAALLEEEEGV

Question: For “Full length MAGEA4 WT (N-terminal histidine tag) (from UniProt P43358 1-317) (natural protein)”, which stoichiometry N [1] is on record?
Answer: Its stoichiometry N is 1.

Question: Which stoichiometry N [2] does the source give for “His-tagged full length (FL) wildtype (WT) RAD18 (from UniProt Q9NS91 1-495) (enzyme)” here?
Answer: Its stoichiometry N is 2.

Question: And the stoichiometry N [3]?
Answer: The stoichiometry N was 2.

Question: How did the stoichiometry N (RAD6 per RAD18) [2] turn out when “RAD6 of the purified RAD18/RAD6 complex (from UniProt P63146 1-152) (enzyme)” was run?
Answer: Its stoichiometry N (RAD6 per RAD18) is 0.5.

Question: What about the stoichiometry N (RAD6 per RAD18) [3] of the same substance?
Answer: Its stoichiometry N (RAD6 per RAD18) is 0.5.

Question: “RAD18 R6BD peptide (27 amino acid peptide containing amino acids 340-366 of RAD18) (from UniProt Q9NS91 340-366)” was tested. Which pKd [4] did it give?
Answer: The pKd was 4.60.
